{
  "source": "paper PMC2710861",
  "binders": {"B1": {"name": "25-mer mixed sequence ssDNA, 5'-biotin (ssDNA)", "DNA": "GCTAGCTCAATTCATCGACAAACCT"}, "B2": {"name": "25-mer mixed sequence ssDNA, 3'-biotin (ssDNA)", "DNA": "GCTAGCTCAATTCATCGACAAACCT"}, "B3": {"name": "44-mer mixed sequence ssDNA (ssDNA)", "DNA": "GCTAGCTCAATTCATCGACAAACCTCCTCGCTCAATTCATAGTC"}},
  "key": {"Rad52 [1]": {"biological_target": "T1, Rad52 (human, UniProt P43351 1-418)", "T1 sequence": "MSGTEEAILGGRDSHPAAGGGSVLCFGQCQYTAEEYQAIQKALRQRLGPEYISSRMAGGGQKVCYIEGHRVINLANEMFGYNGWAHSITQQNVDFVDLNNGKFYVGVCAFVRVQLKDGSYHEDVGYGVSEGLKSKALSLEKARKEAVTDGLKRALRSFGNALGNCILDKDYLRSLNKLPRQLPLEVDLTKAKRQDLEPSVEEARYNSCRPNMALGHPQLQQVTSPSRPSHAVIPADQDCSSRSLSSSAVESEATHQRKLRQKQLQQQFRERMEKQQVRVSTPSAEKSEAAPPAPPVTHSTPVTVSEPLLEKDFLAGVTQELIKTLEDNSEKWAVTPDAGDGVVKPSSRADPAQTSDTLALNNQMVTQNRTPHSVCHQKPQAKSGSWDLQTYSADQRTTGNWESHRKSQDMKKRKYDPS", "assay": "EMSA"}, "Rad52 [2]": {"biological_target": "T1, Rad52", "assay": "UV cross-linking"}, "[3]": {"biological_target": "RPA heterotrimer (RPA70/RPA32/RPA14);Rad52 (human;human, UniProt P27694;P15927;P35244;P43351 1-616;1-270;1-121;1-418, |)", "sequence (P27694 whole entry, chain 1 of 3)": "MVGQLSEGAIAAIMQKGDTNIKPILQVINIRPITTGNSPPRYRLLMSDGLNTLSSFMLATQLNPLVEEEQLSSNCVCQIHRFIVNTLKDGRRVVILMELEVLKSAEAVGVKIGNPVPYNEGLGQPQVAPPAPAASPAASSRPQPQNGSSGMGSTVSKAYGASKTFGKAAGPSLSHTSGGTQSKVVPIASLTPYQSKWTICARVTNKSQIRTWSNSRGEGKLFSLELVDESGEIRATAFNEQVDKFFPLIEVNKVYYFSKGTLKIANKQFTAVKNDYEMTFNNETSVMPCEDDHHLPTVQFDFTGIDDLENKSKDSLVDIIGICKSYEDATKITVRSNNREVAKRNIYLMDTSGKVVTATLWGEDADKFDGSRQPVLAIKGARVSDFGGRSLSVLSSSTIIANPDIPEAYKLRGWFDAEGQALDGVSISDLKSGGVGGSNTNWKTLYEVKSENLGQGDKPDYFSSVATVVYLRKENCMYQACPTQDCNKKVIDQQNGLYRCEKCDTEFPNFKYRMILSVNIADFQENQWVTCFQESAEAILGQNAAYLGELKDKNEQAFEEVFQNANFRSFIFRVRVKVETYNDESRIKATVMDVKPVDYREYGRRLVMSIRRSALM", "sequence (P15927 whole entry, chain 2 of 3)": "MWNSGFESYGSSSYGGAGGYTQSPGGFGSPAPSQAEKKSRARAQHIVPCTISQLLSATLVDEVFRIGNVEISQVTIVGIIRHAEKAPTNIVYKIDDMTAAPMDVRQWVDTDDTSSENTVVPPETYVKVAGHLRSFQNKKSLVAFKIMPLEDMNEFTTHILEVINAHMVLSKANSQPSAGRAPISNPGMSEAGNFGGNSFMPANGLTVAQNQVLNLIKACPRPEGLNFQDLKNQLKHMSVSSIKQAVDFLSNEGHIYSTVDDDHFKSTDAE", "sequence (P35244 whole entry, chain 3 of 3)": "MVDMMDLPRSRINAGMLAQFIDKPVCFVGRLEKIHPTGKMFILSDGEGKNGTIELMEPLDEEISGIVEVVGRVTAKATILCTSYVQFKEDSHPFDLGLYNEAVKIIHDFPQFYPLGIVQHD", "assay": "SEC-MALS and UV cross-linking"}, "[4]": {"biological_target": "RPA heterotrimer (RPA70/RPA32/RPA14) (human, UniProt P27694;P15927;P35244 1-616;1-270;1-121)", "sequence (P27694 whole entry, chain 1 of 3)": "as the sequence (P27694 whole entry, chain 1 of 3) above", "sequence (P15927 whole entry, chain 2 of 3)": "as the sequence (P15927 whole entry, chain 2 of 3) above", "sequence (P35244 whole entry, chain 3 of 3)": "as the sequence (P35244 whole entry, chain 3 of 3) above", "assay": "EMSA"}, "Rad52 [5]": {"biological_target": "T1, Rad52", "assay": "SEC-MALS"}},
  "data": [
    {"binder": "B1", "values": [
      {"measurement": "binding result", "setting": "Rad52 [1]", "result": "binds"}
    ]},
    {"binder": "B2", "values": [
      {"measurement": "binding result", "setting": "Rad52 [2]", "result": "binds"},
      {"measurement": "binding result", "setting": "[3]", "result": "binds"},
      {"measurement": "binding result", "setting": "[4]", "result": "binds"}
    ]},
    {"binder": "B3", "values": [
      {"measurement": "binding result", "setting": "Rad52 [5]", "result": "binds"}
    ]}
  ]
}
